The values below are quoted from earlier work in patent publication US7625865B2, “Insulin highly respirable microparticles” (Universita Degli Studi Di Parma, priority 2004, dated 2009).

For data set [1] the following is noted: nebulization versus direct instillation of an acidic insulin solution.
For data set [2] the following is noted: rats.
The conditions of data set [3]: intratracheal instillation.

Turning to insulin, the “absorbed fraction, aerosolized insulin versus instilled insulin” value in data set [1] is recorded as 10 fold. Also, the absorption of insulin entry in data set [2] is given as “rapid absorption”. The “bioavailability of formulation at pH 3 versus pH 7” value in data set [3] is listed as “greater bioavalability”.
